Reference: patent publication US20240262915A1 (NANJING SANHOME PHARMACEUTICAL, published 2024)

T1: TIGIT on TIGIT/NFAT-reporter-Jurkat cells (UniProt Q495A1 22-244, limits assumed)
T1 sequence (looked up): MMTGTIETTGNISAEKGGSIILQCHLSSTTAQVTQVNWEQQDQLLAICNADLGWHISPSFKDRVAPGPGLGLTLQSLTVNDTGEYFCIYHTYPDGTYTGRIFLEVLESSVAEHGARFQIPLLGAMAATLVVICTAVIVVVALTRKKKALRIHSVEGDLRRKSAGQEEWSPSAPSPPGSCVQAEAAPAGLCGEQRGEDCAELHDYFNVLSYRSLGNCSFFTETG

T2: full-length TIGIT on hTIGIT-CHO-K1 cells (human, UniProt Q495A1 22-244)
T2 construct: CHO-K1 cells stably transfected with pTargeT-TIGIT; also called TIGIT on cell surface
T2 sequence: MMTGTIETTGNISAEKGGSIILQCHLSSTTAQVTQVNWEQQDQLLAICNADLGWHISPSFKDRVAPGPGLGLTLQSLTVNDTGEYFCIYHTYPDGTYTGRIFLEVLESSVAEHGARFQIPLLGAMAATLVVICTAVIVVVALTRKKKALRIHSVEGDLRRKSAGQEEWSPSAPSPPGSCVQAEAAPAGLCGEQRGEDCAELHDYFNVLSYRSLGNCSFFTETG

T3: Human TIGIT-His protein (Sino Biological, 10917-H08H) (human, UniProt Q495A1 22-141)
T3 sequence (looked up): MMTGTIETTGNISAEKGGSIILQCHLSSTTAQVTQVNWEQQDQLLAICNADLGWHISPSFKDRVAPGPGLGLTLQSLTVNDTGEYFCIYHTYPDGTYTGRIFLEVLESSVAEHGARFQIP

T4: TIGIT-mFc (extracellular region of human TIGIT with mIgG1-Fc tag) (human)
T4 construct: A bought TIGIT-mFc (Acro Biosystems TIT-H5253) is used for immunization; also called recombinant humanized TIGIT-mFc
T4 chain: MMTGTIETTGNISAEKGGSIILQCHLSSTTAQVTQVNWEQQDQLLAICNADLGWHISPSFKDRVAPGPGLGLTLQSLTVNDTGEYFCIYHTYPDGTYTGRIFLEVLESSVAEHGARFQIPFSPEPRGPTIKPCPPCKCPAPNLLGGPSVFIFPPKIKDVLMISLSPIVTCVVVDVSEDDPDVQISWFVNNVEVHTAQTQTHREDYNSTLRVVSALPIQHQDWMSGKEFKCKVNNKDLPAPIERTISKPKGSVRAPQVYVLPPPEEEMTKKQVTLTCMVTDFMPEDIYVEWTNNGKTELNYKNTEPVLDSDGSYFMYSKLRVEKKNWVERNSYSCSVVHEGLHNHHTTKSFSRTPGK

T5: TIGIT-his (extracellular region of human TIGIT protein fused with his) (human, UniProt Q495A1 22-141)
T5 construct: also called antigen TIGIT-his
T5 sequence: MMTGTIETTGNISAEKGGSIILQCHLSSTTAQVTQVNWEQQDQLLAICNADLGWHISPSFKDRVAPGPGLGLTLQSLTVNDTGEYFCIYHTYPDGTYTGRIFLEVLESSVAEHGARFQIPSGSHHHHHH


Legend:
[1] = molecular target: T1, TIGIT on TIGIT/NFAT-reporter-Jurkat …; test: cell-based or functional assay
[2] = molecular target: T2, full-length TIGIT on hTIGIT-CHO-K1 cells; test: FACS on hTIGIT-CHO-K1 cells
[3] = molecular target: T3, Human TIGIT-His protein (Sino …); test: ELISA, human TIGIT-His coated
[4] = molecular target: T4, TIGIT-mFc (extracellular region of …); test: ELISA, blocking of TIGIT-mFc binding to coated CD155-hFc (competitor CD155-hFc)
[5] = molecular target: T5, TIGIT-his (extracellular region of …); test: BLI, Fortebio Octet RED96, SA sensor
PD-L1-his = molecular target: T6, PD-L1-his (human, UniProt Q9NZQ7 19-238, limits assumed); test: BLI, Fortebio Octet RED96, antibody on AHC sensor, PD-L1-his in solution
T6 construct: also called human PD-L1 protein
T6 sequence (Q9NZQ7 19-238 limits assumed): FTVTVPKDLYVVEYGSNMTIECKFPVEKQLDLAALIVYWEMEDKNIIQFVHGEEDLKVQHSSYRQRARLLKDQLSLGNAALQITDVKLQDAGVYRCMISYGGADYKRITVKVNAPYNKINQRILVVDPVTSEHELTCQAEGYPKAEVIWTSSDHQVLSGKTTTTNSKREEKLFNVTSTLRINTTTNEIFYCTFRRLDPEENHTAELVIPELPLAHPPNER

[6] = molecular target: T5, TIGIT-his (extracellular region of …); test: BLI, Fortebio Octet RED96, antibody on AHC sensor, TIGIT-his in solution
[7] = molecular target: T4, TIGIT-mFc (extracellular region of …); test: FACS, blocking of TIGIT-mFc binding to cells (TIGIT/CD155; cells printed as hTIGIT-CHO-K1)

Row | Binder | EC50 [2] | EC50 [3] | IC50 [4] | Kd (PD-L1-his) | koff (PD-L1-his) | kon (PD-L1-his) | further results
1 | SHS006-23 (antibody, V domains shown) VH: EVQLVESEGGLVQPGASVKLSCVGSGFSFSDHWMSWVRQTPGKTMEWIGNIQYDGSYTNYAPSLKNRFTISRDNAKNTLYLQMTNLRSEDTATYYCTRGHFRITMASMGASASVYWGQGVMVTVSS VL: DIQMTQSPSSLPTSLGDRVTITCRTSQDIGNSLRWFQQKPGKSPRLMIHGATNLANGVPSRFSGSRAGSDYSLTINSLESEDMAMYYCLQHNEYPLTFGSGTKLEIK |  |  |  |  |  |  | EC50 (nM), luciferase expression induced by anti-TIGIT antibody [1]: 0.019 nM; Top (fold), luciferase expression induced by anti-TIGIT antibody [1]: 1.62 fold
2 | SHS006-23CHI (antibody, V domains shown, Chimeric antibody with human heavy and light chain constant regions) VH: EVQLVESEGGLVQPGASVKLSCVGSGFSFSDHWMSWVRQTPGKTMEWIGNIQYDGSYTNYAPSLKNRFTISRDNAKNTLYLQMTNLRSEDTATYYCTRGHFRITMASMGASASVYWGQGVMVTVSS VL: DIQMTQSPSSLPTSLGDRVTITCRTSQDIGNSLRWFQQKPGKSPRLMIHGATNLANGVPSRFSGSRAGSDYSLTINSLESEDMAMYYCLQHNEYPLTFGSGTKLEIK | 0.235 nM | 1.69 nM | 1.04 nM |  |  |  | 
3 | SHS006-T-Hu17-31 (antibody, IgG4, V domains shown, Humanized) VH: QVTLKESGPVLVKPTETLTLTCTFSGFSLRTYGLGVGWIRQPPGKALEWLANIWWDDDEYYNPSLKNRLTISKDTSKSQAVLTMTNMDPVDTATYYCARIARPHYYWDGRYILDVWGQGTTVTVSS VL: DIVMTQSPLSLPVTPGEPASISCRSSKSLLHSNGITYLSWYLQKPGQSPQLLIYQISNLASGVPDRFSGSGSGTDFTLKISRVEAEDVGVYYCMQFLEVPYTFGQGTKLEIK | 0.303 nM | 1.59 nM | 0.954 nM |  |  |  | Kd [5]: 0.327 nM; koff [5]: 0.000239 s⁻¹; kon [5]: 731000 M⁻¹ s⁻¹
4 | humanized antibody 22G2 (antibody, IgG4, V domains shown, Expressed from pHR-22G2-hG4 (IgG4 heavy chain) and pHR-22G2-hk (light chain); from US 2016/0176963A1; also called positive control antibody) VH: QVQLQESGPGLVKPSETLSLTCTVSGGSVSSGIYYWSWIRQPPGKGLEWIGYIYYSGSTNYNPSLKSRVTISVDTSKNQFSLKLSSVTAADTAVYYCARDYYVSGNYYNVDYYFFGVDVWGQGTTVTVSS VL: EIVLTQSPATLSLSPGERATLSCRASQSVSSYLAWYQQKPGQAPRLLIYDASNRATGIPARFSGSGSGTDFTLTISSLEPEDFAVYYCQQRSNWPPLFTFGPGTKVDIK | 0.411 nM |  | 1.34 nM |  |  |  | EC50 (nM), luciferase expression induced by anti-TIGIT antibody [1]: 0.104 nM; Top (fold), luciferase expression induced by anti-TIGIT antibody [1]: 1.59 fold
5 | SHS006-17CHI (antibody, V domains shown, Chimeric antibody with human heavy and light chain constant regions) VH: QVTLKESGPGILQPSQTLSLTCTFSGFSLRTYGLGVGWIRQLSGKGLEWLANIWWDDDEYYNPSLKNRLTISKDTSNNQAFLKITNVDTADTATYYCARIARPHYYWDGRYILDVWGQGASVTVSS VL: DIMMTQSPLSVAVTPGESASISCRSSKSLLHSNGITYLSWYLQRPEKSPQLLIFQISNLASGVSDRFSGSGSGTDFTLIISKVETEDVGIYYCMQFLEVPYTFGAGTKLELK | 0.408 nM | 1.58 nM | 1.03 nM |  |  |  | 
6 | HuPL16-42 (antibody, IgG4, V domains shown, also called humanized anti-PD-L1 antibody HuPL16-42) VH: QVQLVQSGAEVAKPGASVKMSCKASGYTFTRNTMHWIKQAPGQRLEWIGFIDPHNTYTRYNQKFKDRATLTADTSASTAYMELSSLRSEDTAVYYCARWPMDYWGQGTLVTVSS VL: DIVMTQSPDSLAVSLGERVTMRCKSSQSLSWSENQNNYLSWYQQKPGQPPKLLIYGASIRESGVPDRFSGSGSGTDFTLTISSVQAEDVGVYYCQHNHGSFLPYTFGQGTKLEIK |  |  |  | 1.9 nM | 0.000225 s⁻¹ | 119000 M⁻¹ s⁻¹ | 
7 | HuPL7-21 (antibody, IgG4, V domains shown, also called humanized anti-PD-L1 antibody HuPL7-21) VH: QVQLQESGPGLVKPSQTLSLTCTVSGDSITSGYWNWIRQHPGKGLEYIGYISYTGSTYYNLSLKSRVTISRDTSKNQFSLKLSSVTAADTAVYYCARYILWLRHFDYWGQGTLVTVSS VL: not shown |  |  |  | 1.49 nM | 0.000276 s⁻¹ | 185000 M⁻¹ s⁻¹ | 
8 | SHS006-T-Hu23-53 (antibody, IgG4, V domains shown, Humanized; also called SHS006-HuT23-53; HuT23-53) VH: EVQLVESGGGLVQPGGSLRLSCAASGFTFSDHWMSWVRQAPGKTMEWIGNIQYDGSYTNYAPSLKNRFTISRDNAKNSLYLQMNSLRAEDTATYYCTRGHFRITMASMGASASVYWGQGTMVTVSS VL: DIQMTQSPSSLSASVGDRVTITCRTSQDIGNSLRWFQQKPGKAPKLLIHGATNLANGVPSRFSGSGSGTDFTLTISSLQPEDFATYYCLQHNEYPLTFGQGTKLEIK | 0.199 nM | 2.43 nM | 1.01 nM |  |  |  | Kd [5]: 1.14 nM; koff [5]: 0.00151 s⁻¹; kon [5]: 1.33e+06 M⁻¹ s⁻¹; Kd [6]: 2.43 nM; koff [6]: 0.00192 s⁻¹; kon [6]: 792000 M⁻¹ s⁻¹
9 | HuPL1642-T2353-ScFab (bispecific antibody, human IgG4 S228P, kappa) chain 1: DIQMTQSPSSLSASVGDRVTITCRTSQDIGNSLRWFQQKPGKAPKLLIHGATNLANGVPSRFSGSGSGTDFTLTISSLQPEDFATYYCLQHNEYPLTFGCGTKLEIKRTVAAPSVFIFPPSDEQLKSGTASVVCLLNNFYPREAKVQWKVDNALQSGNSQESVTEQDSKDSTYSLSSTLTLSKADYEKHKVYACEVTHQGLSSPVTKSFNRGECGGGGSGGGGSGGGGSGGGGSGGGGSGGGGSGGGGSGGGGSEVQLVESGGGLVQPGGSLRLSCAASGFTFSDHWMSWVRQAPGKCMEWIGNIQYDGSYTNYAPSLKNRFTISRDNAKNSLYLQMNSLRAEDTATYYCTRGHFRITMASMGASASVYWGQGTMVTVSSASTKGPSVFPLAPCSRSTSESTAALGCLVKDYFPEPVTVSWNSGALTSGVHTFPAVLQSSGLYSLSSVVTVPSSSLGTKTYTCNVDHKPSNTKVDKRVESKYGPPCPPCPAPEFLGGPSVFLFPPKPKDTLMISRTPEVTCVVVDVSQEDPEVQFNWYVDGVEVHNAKTKPREEQFNSTYRVVSVLTVLHQDWLNGKEYKCKVSNKGLPSSIEKTISKAKGQPREPQVYTLPPCQEEMTKNQVSLWCLVKGFYPSDIAVEWESNGQPENNYKTTPPVLDSDGSFFLYSRLTVDKSRWQEGNVFSCSVMHEALHNHYTQKSLSLSLGK chain 2: DIVMTQSPDSLAVSLGERVTMRCKSSQSLSWSENQNNYLSWYQQKPGQPPKLLIYGASIRESGVPDRFSGSGSGTDFTLTISSVQAEDVGVYYCQHNHGSFLPYTFGCGTKLEIKRTVAAPSVFIFPPSDEQLKSGTASVVCLLNNFYPREAKVQWKVDNALQSGNSQESVTEQDSKDSTYSLSSTLTLSKADYEKHKVYACEVTHQGLSSPVTKSFNRGECGGGGSGGGGSGGGGSGGGGSGGGGSGGGGSGGGGSGGGGSQVQLVQSGAEVAKPGASVKMSCKASGYTFTRNTMHWIKQAPGQCLEWIGFIDPHNTYTRYNQKFKDRATLTADTSASTAYMELSSLRSEDTAVYYCARWPMDYWGQGTLVTVSSASTKGPSVFPLAPCSRSTSESTAALGCLVKDYFPEPVTVSWNSGALTSGVHTFPAVLQSSGLYSLSSVVTVPSSSLGTKTYTCNVDHKPSNTKVDKRVESKYGPPCPPCPAPEFLGGPSVFLFPPKPKDTLMISRTPEVTCVVVDVSQEDPEVQFNWYVDGVEVHNAKTKPREEQFNSTYRVVSVLTVLHQDWLNGKEYKCKVSNKGLPSSIEKTISKAKGQPREPQVCTLPPSQEEMTKNQVSLSCAVKGFYPSDIAVEWESNGQPENNYKTTPPVLDSDGSFFLVSRLTVDKSRWQEGNVFSCSVMHEALHNHYTQKSLSLSLGK |  |  |  | 1.15 nM | 0.000212 s⁻¹ | 184000 M⁻¹ s⁻¹ | Kd [6]: 13.9 nM; koff [6]: 0.00487 s⁻¹; kon [6]: 350000 M⁻¹ s⁻¹; IC50 [7]: 1.51 nM
